The values that follow come from publication PMC12159506.

B1: SmBiT-C-CaSR-WT [not stated] / LgBiT-N-AP2σ-WT [not stated] (parent)
chain 1: not shown
chain 2: YGPDQRAQKKGDIILGGLFPIHFGVAAKDQDLKSRPESVECIRYNFRGFRWLQAMIFAIEEINSSPALLPNLTLGYRIFDTCNTVSKALEATLSFVAQNKIDSLNLDEFCNCSEHIPSTIAVVGATGSGVSTAVANLLGLFYIPQVSYASSSRLLSNKNQFKSFLRTIPNDEHQATAMADIIEYFRWNWVGTIAADDDYGRPGIEKFREEAEERDICIDFSELISQYSDEEEIQHVVEVIQNSTAKVIVVFSSGPDLEPLIKEIVRRNITGKIWLASEAWASSSLIAMPQYFHVVGGTIGFALKAGQIPGFREFLKKVHPRKSVHNGFAKEFWEETFNCHLQEGAKGPLPVDTFLRGHEESGDRFSNSSTAFRPLCTGDENISSVETPYIDYTHLRISYNVYLAVYSIAHALQDIYTCLPGRGLFTNGSCADIKKVEAWQVLKHLRHLNFTNNMGEQVTFDECGDLVGNYSIINWHLSPEDGSIVFKEVGYYNVYAKKGERLFINEEKILWSGFSREVPFSNCSRDCLAGTRKGIIEGEPTCCFECVECPDGEYSDETDASACNKCPDDFWSNENHTSCIAKEIEFLSWTEPFGIALTLFAVLGIFLTAFVLGVFIKFRNTPIVKATNRELSYLLLFSLLCCFSSSLFFIGEPQDWTCRLRQPAFGISFVLCISCILVKTNRVLLVFEAKIPTSFHRKWWGLNLQFLLVFLCTFMQIVICVIWLYTAPPSSYRNQELEDEIIFITCHEGSLMALGFLIGYTCLLAAICFFFAFKSRKLPENFNEAKFITFSMLIFFIVWISFIPAYASTYGKFVSAVEVIAILAASFGLLACIFFNKIYIILFKPSRNTIEEVRCSTAAHAFKVAARATLRRSNVSRKRSSSLGGSTGSTPSSSISSKSNSEDPFPQPERQKQQQPLALTQQEQQQQPLTLPQQQRSQQQPRCKQKVIFGSGTVTFSLSFDEPQKNAMAHRNSTHQNSLEAQKSSDTLTRHEPLLPLQCGETDLDLTVQETGLQGPVGGDQRPEVEDPEELSPALVVSSSQSFVISGGGSTVTENVVNS

Variants of B1 are the subject of one experiment. Put plainly: NanoBiT split-luciferase. The conditions noted are these: with LgBiT-N-AP2σ-WT; N = 6; read off a plot.
In the case of chain 2 R990A H991A E992A P993A L994A L995A, the response is 3.6.

Regarding chain 2 L994A L995A, the response stood at 3.2.

Staying with this experiment, now noted: with LgBiT-N-AP2σ-WT; N = 10; read off a plot.
As to chain 2 R990A, the response was found to be 3.8.

In the case of chain 2 L994A L995A, the response came out at 2.1.

In the case of chain 2 P993A, the response is 4.5.

Take chain 2 H991A: the response came to 3.

The same experiment, now with this note: with LgBiT-N-AP2σ-WT; N = 7; read off a plot.
In the case of chain 2 L994A L995A, the response came out at 2.4.

For the variant chain 2 S959A, the response came to 4.8.

chain 2 T987A: the response is 4.9.

chain 2 S985A: the response turned out to be 4.9.

Take chain 2 T989A: the response was determined as 4.7.
